# In the RNAGym collection of RNA variant scans (doi:10.7554/elife.80360):
# B1: Hairpin Ribozyme (parent)
# chain: GUCCUCUUUCACGUGCGCGUGAAAGAGAGAAGUGAACCAGAGAAACACACGUUGUGGUAUAUUACCUGGUA
# Variants of: B1
# Assay: self-cleavage, relative activity (ratio to wild type); higher = more cleavage; co-transcriptional
row,Variant,self-cleavage
1,U8C U14G,0.501
2,U8C G51C,0.701
3,U8C G51A,0.855
4,U8C G51U,0.901
5,U8G U52A,0.752
6,U8G U52G,0.621
7,U8G U62G,0.163
8,U7G C65U,0.369
9,U7G C46U,0.129
10,U7G G19U,0.414
11,U7G U9C,0.66
12,U8G A71C,1.34
13,U7G C38A,0.129
14,U7G C38G,0.0992
15,U8C U20A,0.604
16,U8C U20G,0.439
17,U7G A49C,0.141
18,U7G A49U,0.15
19,U8G G13U,0.438
20,U7A U63C,0.102
21,U7A U63G,0.199

row,Variant,self-cleavage
1,U8A C16A,0.876
2,U8A C16G,0.632
3,U7G G51U,0.844
4,U8C G32A,0.198
5,U8C G19C,0.232
6,U8G U14A,0.554
7,U8G U14G,0.542
8,U8G U14C,0.814
9,U8C A31C,0.0859
10,U8C A31G,0.241
11,U8C A31U,0.14
12,U7C U8G,0.484
13,U8G U60A,0.647
14,U8G U60C,0.845
15,U8G A39G,0.263
16,U7C G17A,0.863
17,U8G A45C,0.111
18,U8G G69U,0.29
19,U7G G15A,0.736
20,U8A G27C,0.186
21,U7G U60G,0.484

row,Variant,self-cleavage
1,U8G A11G,0.704
2,U8C U58C,0.911
3,U8C U58A,0.552
4,U7G C16A,0.929
5,U8A G56A,0.158
6,U8G A43C,0.152
7,U8G A43U,0.228
8,U8G G56U,0.169
9,U7C A22C,0.178
10,U7C A22G,0.565
11,U8C A30C,0.201
12,U7G A31C,0.11
13,U8C C10U,0.564
14,U8C A22C,0.209
15,U8C A22G,0.515
16,U8C A61G,0.0942
17,U8A C38A,0.15
18,U8A C38G,0.102
19,U8A A24G,0.511
20,U8G G25C,0.0293
21,U8C G40A,0.274

row,Variant,self-cleavage
1,U8A U60C,0.89
2,U7G U20A,0.294
3,U7C A28G,1.02
4,U8G C48U,0.0825
5,U8G C48G,0.138
6,U8G C48A,0.146
7,U8G G42C,0.284
8,U8G G42U,0.254
9,U8C G42U,0.252
10,U8C A64C,0.043
11,U8C A41C,0.72
12,U8C A41G,0.458
13,U7G G34A,0.984
14,U7G G34C,1.39
15,U7G G32U,0.135
16,U7G G32A,0.173
17,U7C U63A,0.19
18,U7C U63G,0.161
19,U8A A35C,0.911
20,U8A G42C,0.147
21,U8A G42U,0.261
